Experiment in all cases: SPR (BIACORE), antibody captured, FcgR analyte
Background: Surface plasmon resonance follows binding to a sensor surface in real time, without labels.

Test [1] concerns the target T1, human FcγRIIb extracellular domain with C-terminal His-tag (human, UniProt P31994 43-217).
T1 construct: also called human FcgRIIb
T1 sequence: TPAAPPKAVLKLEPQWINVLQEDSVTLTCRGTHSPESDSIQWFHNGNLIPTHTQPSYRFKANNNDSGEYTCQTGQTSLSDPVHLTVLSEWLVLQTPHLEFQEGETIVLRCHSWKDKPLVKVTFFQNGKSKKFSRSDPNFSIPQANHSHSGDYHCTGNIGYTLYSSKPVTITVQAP

The target of test [2] is T2, cynomolgus monkey FcγRIIb extracellular domain with C-terminal His-tag (cynomolgus monkey).
T2 construct: also called cyno FcgRIIb; cynoFcγRIIb
T2 chain: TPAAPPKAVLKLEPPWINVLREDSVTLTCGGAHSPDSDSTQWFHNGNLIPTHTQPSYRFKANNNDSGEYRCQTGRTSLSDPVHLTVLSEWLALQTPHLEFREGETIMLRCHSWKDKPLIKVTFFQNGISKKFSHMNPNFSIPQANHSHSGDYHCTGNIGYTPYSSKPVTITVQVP

Test [3] deals with T3, cynomolgus monkey FcγRIIIaS extracellular domain with C-terminal His-tag (cynomolgus monkey, UniProt Q8SPW2 21-206 at identity 1.00)).
T3 construct: also called cyno FcgRIIIaS; cynoFcγRIIIaS
T3 chain: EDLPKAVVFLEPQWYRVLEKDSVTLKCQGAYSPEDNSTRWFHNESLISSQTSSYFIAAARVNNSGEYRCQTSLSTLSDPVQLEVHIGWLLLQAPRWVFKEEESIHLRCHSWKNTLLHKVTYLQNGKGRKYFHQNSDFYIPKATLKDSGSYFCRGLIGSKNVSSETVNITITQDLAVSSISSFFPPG

Test [4] addresses T4, human FcγRIIaH extracellular domain with C-terminal His-tag (human, UniProt P12318 34-217).
T4 construct: also called human FcgRIIaH; FcγRIIa (type H)
T4 sequence: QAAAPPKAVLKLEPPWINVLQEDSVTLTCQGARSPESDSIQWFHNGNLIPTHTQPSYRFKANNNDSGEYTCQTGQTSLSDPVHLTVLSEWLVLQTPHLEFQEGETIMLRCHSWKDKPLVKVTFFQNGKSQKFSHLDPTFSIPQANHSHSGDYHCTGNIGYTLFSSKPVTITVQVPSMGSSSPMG

In test [5] the target is T5, cynomolgus monkey FcγRIIa2 extracellular domain with C-terminal His-tag (cynomolgus monkey).
T5 construct: also called cyno FcgRIIa2; cynoFcγRIIa2
T5 chain: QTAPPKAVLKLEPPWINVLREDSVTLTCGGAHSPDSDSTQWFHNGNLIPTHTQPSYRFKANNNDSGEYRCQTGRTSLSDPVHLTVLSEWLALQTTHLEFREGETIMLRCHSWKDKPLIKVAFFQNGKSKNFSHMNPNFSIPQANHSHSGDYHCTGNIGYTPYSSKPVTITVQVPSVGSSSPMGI

Test [6] concerns the target T6, cynomolgus monkey FcγRIIa3 extracellular domain with C-terminal His-tag (cynomolgus monkey).
T6 construct: also called cyno FcgRIIa3; cynoFcγRIIa3
T6 chain: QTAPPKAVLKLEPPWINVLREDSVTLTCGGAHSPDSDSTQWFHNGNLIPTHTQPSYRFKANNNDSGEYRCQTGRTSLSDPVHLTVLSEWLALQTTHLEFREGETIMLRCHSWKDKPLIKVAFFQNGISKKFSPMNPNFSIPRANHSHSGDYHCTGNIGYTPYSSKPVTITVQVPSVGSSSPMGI

Test [7] concerns the target T7, human FcγRIIaR extracellular domain with C-terminal His-tag (human, UniProt P12318 34-217).
T7 construct: also called human FcgRIIaR; FcγRIIa (type R)
T7 chain: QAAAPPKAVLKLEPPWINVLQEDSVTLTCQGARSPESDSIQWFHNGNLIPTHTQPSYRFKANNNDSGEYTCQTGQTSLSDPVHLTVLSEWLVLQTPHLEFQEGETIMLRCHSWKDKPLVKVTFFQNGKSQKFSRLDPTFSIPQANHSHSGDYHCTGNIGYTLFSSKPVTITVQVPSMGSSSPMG

The record followed here is patent publication US20200317768A1 (published 2020).

B1: M103205H795-MY209/M103202L889-SK1 (antibody, human IgG1, kappa)
heavy: QVTLKESGPVLVKPTETLTLTCTVSGIDLSHDDISWVRQAPGKGLEWVGIISYAGSTYYASWAKGRLTISKDTSKNQVVLTMTNMDPVDTATYYCARGVPAYSHGGDLWGQGTLVTVSSASTKGPSVFPLAPSSKSTSGGTAALGCLVKDYFPEPVTVSWNSGALTSGVHTFPAVLQSSGLYSLSSVVTVPSSSLGTQTYICNVNHKPSNTKVDKKVEPKSCDKTHTCPPCPAPELLNGPSVFLFPPKPKDTLMISRTPEVTCVVVDVSDEDPEVKFNWYVDGVEVHNAKTKPREELYNSTYRVVSVLTVLHQDWLNGKEYKCKVSNTALPKPIEKTISKAKGQPREPQVYTLPPSREEMTKNQVSLTCLVKGFYPSDIAVEWESNGQPENNYKTTPPVLDSDGSFFLYSKLTVDKSRWQQGNVFSCSVMHEALHNHYTQKSLSLSP
light: DIVMTQSPATLSLSPGERATLSCTSSQSVYHANWLSWFQQKPGQPPKLLIYWASTLAYGVPSRFSGSGSGTDFTLTISSLQPEDAATYYCAGGYGGGRYAFGQGTKVEIKRTVAAPSVFIFPPSDEQLKSGTASVVCLLNNFYPREAKVQWKVDNALQSGNSQESVTEQDSKDSTYSLSSTLTLSKADYEKHKVYACEVTHQGLSSPVTKSFNRGEC
notes: Substitutions introduced into M103205H795-SG1, expressed with M103202L889-SK1 as light chain; EU numbering
The term Kd denotes the concentration at which binding is half-saturated. As for B1, the Kd in test [1] was 500 nM; in test [2], 190 nM; in test [3], 2200 nM; in test [4], 570 nM; in test [5], 690 nM; in test [6] it was 1900 nM. Besides, in test [7], the Kd came to 880 nM.

B2: M103205H795-MY339/M103202L889-SK1 (antibody, human IgG1, kappa)
heavy: QVTLKESGPVLVKPTETLTLTCTVSGIDLSHDDISWVRQAPGKGLEWVGIISYAGSTYYASWAKGRLTISKDTSKNQVVLTMTNMDPVDTATYYCARGVPAYSHGGDLWGQGTLVTVSSASTKGPSVFPLAPSSKSTSGGTAALGCLVKDYFPEPVTVSWNSGALTSGVHTFPAVLQSSGLYSLSSVVTVPSSSLGTQTYICNVNHKPSNTKVDKKVEPKSCDKTHTCPPCPAPELLLGPSVFLFPPKPKDTLMISRTPEVTCVVVDVSDEDPEVKFNWYVDGVEVHNAKTKPREEQYNSTYRVVSVLTVLHQDWLNGKEYKCKVSNTALPKPIEKTISKAKGQPREPQVYTLPPSREEMTKNQVSLTCLVKGFYPSDIAVEWESNGQPENNYKTTPKVLDSDGSFFLYSKLTVDKSRWQQGNVFSCSVMHEALHNHYTQKSLSLSP
light: DIVMTQSPATLSLSPGERATLSCTSSQSVYHANWLSWFQQKPGQPPKLLIYWASTLAYGVPSRFSGSGSGTDFTLTISSLQPEDAATYYCAGGYGGGRYAFGQGTKVEIKRTVAAPSVFIFPPSDEQLKSGTASVVCLLNNFYPREAKVQWKVDNALQSGNSQESVTEQDSKDSTYSLSSTLTLSKADYEKHKVYACEVTHQGLSSPVTKSFNRGEC
notes: as for B1
As to B2, the Kd in test [1] was found to be 2800 nM; in test [2], 750 nM; in test [3], 760 nM; in test [4] it was 410 nM; in test [5], 3000 nM; in test [6], 3800 nM. Binding in test [7] was put at a Kd of 530 nM.

B3: M103205H795-MY283/M103202L889-SK1 (antibody, human IgG1, kappa)
heavy: QVTLKESGPVLVKPTETLTLTCTVSGIDLSHDDISWVRQAPGKGLEWVGIISYAGSTYYASWAKGRLTISKDTSKNQVVLTMTNMDPVDTATYYCARGVPAYSHGGDLWGQGTLVTVSSASTKGPSVFPLAPSSKSTSGGTAALGCLVKDYFPEPVTVSWNSGALTSGVHTFPAVLQSSGLYSLSSVVTVPSSSLGTQTYICNVNHKPSNTKVDKKVEPKSCDKTHTCPPCPAPELLTGPSVFLFPPKPKDTLMISRTPEVTCVVVDVSDEDPEVKFNWYVDGVEVHNAKTKPREELYNSTYRVVSVLTVLHQDWLNGKEYKCKVSNKALPKPIEKTISKAKGQPREPQVYTLPPSREEMTKNQVSLTCLVKGFYPSDIAVEWESNGQPENNYKTTPPVLDSDGSFFLYSKLTVDKSRWQQGNVFSCSVMHEALHNHYTQKSLSLSP
light: DIVMTQSPATLSLSPGERATLSCTSSQSVYHANWLSWFQQKPGQPPKLLIYWASTLAYGVPSRFSGSGSGTDFTLTISSLQPEDAATYYCAGGYGGGRYAFGQGTKVEIKRTVAAPSVFIFPPSDEQLKSGTASVVCLLNNFYPREAKVQWKVDNALQSGNSQESVTEQDSKDSTYSLSSTLTLSKADYEKHKVYACEVTHQGLSSPVTKSFNRGEC
notes: as for B1
On to B3, for which the Kd was found to be 1800 nM in test [1]; 420 nM in test [2]; 2200 nM in test [3]; 140 nM in test [4]; 1600 nM in test [5]; 4400 nM in test [6]. In test [7], this molecule displayed an equilibrium dissociation constant (Kd) of 350 nM.
